Results taken from PMC9359538.

Columns and labels:
[1] = target: HSV-1 glycoprotein E (HSV-1) (UniProt P04488); test: co-IP; lysates of 293 cells infected with adenovirus expressing gE (48 h) or with HSV-1; IP with anti-gE Ab; western blot for Anx-A1; band ratio Anx-A1/gE
[2] = target: HSV-1 gE expressed from recombinant adenovirus (HSV-1) (UniProt P04488); test: as above

B1: annexin A1 (natural protein)
chain: MAMVSEFLKQAWFIENEEQEYVQTVKSSKGGPGSAVSPYPTFNPSSDVAALHKAIMVKGVDEATIIDILTKRNNAQRQQIKAAYLQETGKPLDETLKKALTGHLEEVVLALLKTPAQFDADELRAAMKGLGTDEDTLIEILASRTNKEIRDINRVYREELKRDLAKDITSDTSGDFRNALLSLAKGDRSEDFGVNEDLADSDARALYEAGERRKGTDVNVFNTILTTRSYPQLRRVFQKYTKYSKHDMNKVLDLELKGDIEKCLTAIVKCATSKPAFFAEKLHQAMKGVGTRHKALIRIMVSRSEIDMNDIKAFYQKMYGISLCQAILDETKGDYEKILVALCGGN
**Q.** Which Anx-A1/gE ratio in the co-precipitate [1] does the source give for B1 here?
**A.** 0.51

**Q.** And the Anx-A1/gE ratio in the co-precipitate [2]?
**A.** 0.44
